Test system: MS2 coat protein
Experiment: apparent KD of MS2 coat protein; designed switch direction (-1 OFF switch, 1 ON switch): -1; higher = weaker reporter binding
Procedure, shortened: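 The apparent KD reported per design is the median over clusters of curve fits to normalised cluster fluorescence. The RNA switches were transcribed on Illumina chips by stalled E. coli RNA polymerase. SNAP-549-labelled MS2 coat protein was titrated from 0.7 or 1.5 nM, doubling up to 3 µM, in Tris-HCl pH 7.5 buffer containing KCl, MgCl2, BSA, DTT, tRNA and Tween-20, with no input, 200 uM small-molecule ligand, or an oligonucleotide input.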

[1] = Eterna round: R95, input ligand: microRNA oligo, concentration not stated
[2] = Eterna round: R95, input ligand: FMN 200 uM
[3] = Eterna round: R95, input ligand: none
[4] = input ligand: microRNA oligo, concentration not stated

| Sequence | apparent KD of MS2 coat protein (input ligand: FMN 200 uM) [nM] | apparent KD of MS2 coat protein (input ligand: none) [nM] | apparent KD of MS2 coat protein [1] [nM] | apparent KD of MS2 coat protein [2] [nM] | apparent KD of MS2 coat protein [3] [nM] | apparent KD of MS2 coat protein [4] [nM] |
| --- | --- | --- | --- | --- | --- | --- |
| GGGUGACAUGAGGAUCACCCAUGUCAGGAUAUGGGCCCGGGCCCGAAAGGGCCCGGGCCCAGAAGGGACUGCCC [-52, -51 kcal, 22%A] (Eterna round: R97, puzzle: Exclusion 1) | 151 | 46.5 | – | – | – | – |
| GGGUGCAGGCUGAGGUCCUACAUGAGGAUCACCCAUGUGGUCCGGUGACGUGAGUCACCGGACUUAGCUCGUCUUGU [salish99_S_TOV1_R5_009] (Eterna round: R97, puzzle: Sensor, turn-off variant 1) | 82 | 97.8 | – | – | – | – |
| GGGUUACAUGAGGAUCACCCAUGUGAGGAUAUGAUACUAUGUACUUCGGUACAUAGUAUCAGAAGGCACAUAAA [Ex1-3: 19] (puzzle: Exclusion 1) | – | – | 121 | – | – | – |
| GGUACUAACACGAAAGUGUUAGUACUAUAGGUUUGUGUUACAUGAGGAUCACCCAUGUCCUCAUAAGCUCGUCUUGU [JL-sv3-2.21 mat747 mod] (puzzle: Sensor v3, turn-off variant 2) | – | – | 170 | 455 | 403 | – |
| GGUACUAACACGGAAGUGUUAGUACUAUAAGCUUGUGUUACAUGAGGAUCACCCAUGUCCUCAUAAGCUCGUCUUAU [Mat - Sensor v3 - Turn-off var 2 - D75] (puzzle: Sensor v3, turn-off variant 2) | – | – | 38.1 | 93.5 | 90.7 | – |
| GGUACUCAAAGAGUACCAAUACGAACAUGAGGAUCACCCAUGUAGGAUAUGCUACUCAAAGAGUAGCAGAAGGACAUGUACCUU [Far Half Aptamer v6] (Eterna round: R96, puzzle: Exclusion NG 3) | 227 | 29.5 | – | – | – | 19.7 |
| GGUACUCAAAGAGUACCAAUACGAACAUGAGGAUCACCCAUGUAGGAUAUGCUACUCAAAGAGUAGCAGAAGGAUAUGAUGGAU [Far Half Aptamer v15] (Eterna round: R96, puzzle: Exclusion NG 3) | 60.2 | 34.2 | – | – | – | 19.2 |
| GGUACUCAAAGAGUACCAAUACGAACAUGAGGAUCACCCAUGUAGGAUAUGCUACUCAAAGAGUAGCAGAAGGAUAUGAUGUAU [Far Half Aptamer v17] (Eterna round: R96, puzzle: Exclusion NG 3) | – | – | – | – | – | 27.6 |
| GGUAGAGUGGUAGGAUAUCCGUCUGUUUCAGUCGGAGAAGGACCACAGUCACUGGGUCCAAAUAUGGGUGACCAUGUAUCUACC [pwkr exNG1 F6.3] (Eterna round: R96, puzzle: Exclusion NG 1) | 622 | 392 | – | – | – | 358 |
| GGUAGCUGAGGAUAUGCAGACGACCCUCAGUGCUGGCUUGCACAUGAGGAUCACCCAUGUAGAAGGCAGAAGCU [Eternabot (L2) Solution 5] (Eterna round: R97, puzzle: Exclusion 2) | 56 | 57.5 | – | – | – | – |
| GGUAGGUGUGACUUGGGUGACAUGAGGAUCACCCAUGUCACAAGCUUGUUGCUCGCCUUGUAGUUAACCCAUGUCAC [LRO Sensor-off var1-30 mod of Stov1-13-A1 by Brourd] (Eterna round: R97, puzzle: Sensor, turn-off variant 1) | 34.1 | 34.5 | – | – | – | – |
| GGUCAAGAACAGAUCCGCGCUGUCAUUGACCGCUCAUUUACAUGAGGAUCACCCAUGUUUUUUGCUUGUCUUGUUAC [Edrama] (puzzle: Sensor v3, turn-off variant 2) | – | – | 88.3 | 19.6 | 18.2 | – |
| GGUCAGAUGGUAGGAUAUCCAUAUCGAGUGACCCUUUUAUAACAUGAGGAUCACCCAUGUCGGUGGGAGAAGGGCCGUACGGCG [salish99_ExNG02_R04_018] (Eterna round: R96, puzzle: Exclusion NG 2) | 244 | 224 | – | – | – | 129 |
| GGUCAGAUGGUAGGAUAUUUAUAUCGAGUGACCCUUUCAUAACAUGAGGAUCACCCAUGUCGGUGGGAGAAGGGCCGUACGGCG [salish99_ExNG02_R04_013] (Eterna round: R96, puzzle: Exclusion NG 2) | 37.7 | 45.7 | – | – | – | 33.1 |
| GGUCAGCUAGGAUAUACAUGAGGAUCACCCAUGUACUGACCCAUGCGGGAAUCCGCGUGUAGAAGGAGCAAAAG [jl-ex3-4.60 ViennaUCT mod] (Eterna round: R97, puzzle: Exclusion 3) | 33 | 32.5 | – | – | – | – |
| GGUCCACAUGAGGAUCACCCAUGUUAGGAUAUCUCCUGCCUCCUAAAUGGAAGCAGACAGAGAAGGAACAUCAA [Soanatra] (Eterna round: R96, puzzle: Exclusion 1) | 113 | 25.4 | – | – | – | 21.8 |
| GGUCCACAUGAGGAUCACCCAUGUUAGGAUAUCUCCUGCCUCCUAAAUGGAAGCAGACAGAGAAGGAACAUCAA [Soanatra] (puzzle: Exclusion 1) | – | – | 24.5 | – | – | – |
| GGUCCACAUGAGGAUCACCCAUGUUAGGAUAUCUCGCCCGAGUCCAUAUGGGCCGGGCAGAGAAGGAAUGUGAA [Vevequbi] (puzzle: Exclusion 1) | – | – | 17.4 | – | – | – |
| GGUCGAAGUGUGAGGAUAUGCUGGUCCUUGGAUCAGCAGAAGGCACAUGAGGAUCACCCAUGUGGUAAACGACC [Mat - Exclusion 4 - Eli Mod - D34] (Eterna round: R97, puzzle: Brourd's mod of Exclusion 4) | 982 | 171 | – | – | – | – |
| GGUCGACAUGAGGAUCACCCAUGUCAGGAUAUCGUCACUGGAGCUUCGGCUCCAGUGACGAGAAGGGACAUAAU [E1/14-A1] (Eterna round: R97, puzzle: Exclusion 1) | 39.5 | 39.2 | – | – | – | – |
| GGUCGGCGAGGAUAUACAUGAGGAUCACCCAUGUGAUAGAGUGCACGCGUACGUGUAUGUAGAAGGCGCUGACG [JL-ex3-3.29 salish99 mod] (puzzle: Exclusion 3) | – | – | 34.2 | 160 | 66 | – |
| GGUCGGCGAGGAUAUACAUGAGGAUCACCCAUGUGAUAUAGUGCACGCGUACGUGUACGUAGAAGGCGCUGACG [JL-ex3-3.26 salish99 mod] (puzzle: Exclusion 3) | – | – | 11.2 | 39.6 | 15.1 | – |
| GGUCGUCAAGUCAGGAUAUCGUAUAGUCGAUGUAACGAGAAGGGACAUGAGGAUCACCCAUGUCGUCUCAUCAG [Ex4 #25] (Eterna round: R97, puzzle: Brourd's mod of Exclusion 4) | 18.2 | 17.7 | – | – | – | – |
| GGUCUGCGAGGAUAUACAUGAGGAUCACCCAUGUGAGUGAUACUAGUGAGGUCGAUUGGUAGAAGGCGCGGACG [JL-ex3-2.05 salish99 mod] (puzzle: Exclusion 3) | – | – | 445 | 37 | 839 | – |
| GGUGAGCUAGGAUAUGCUUUGGGCUCGCUUUCCUUCGAUAAACUUGAGGAUCACCCAAGUAGAAGGAGCUUGCC [salish99_ex2_r4_033] (Eterna round: R97, puzzle: Exclusion 2) | 14.8 | 12 | – | – | – | – |

— the supplement of paper PMC9170038
